Laboratory results from patent publication CN101407546A (UNIV CHINA PHARMA, dated 2009).

Biological target: 人肿瘤坏死因子-α (hTNF-α) (human, UniProt P01375 77-233)
Assay: cell-based or functional assay

Sequence of 人肿瘤坏死因子-α (hTNF-α) (P01375 77-233 limits assumed): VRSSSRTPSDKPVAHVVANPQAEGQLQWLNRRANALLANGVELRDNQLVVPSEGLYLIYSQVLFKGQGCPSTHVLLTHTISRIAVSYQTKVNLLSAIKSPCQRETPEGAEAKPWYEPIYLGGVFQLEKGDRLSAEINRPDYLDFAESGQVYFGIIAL

B1: 全人源抗hTNF-α单链抗体F6 (scFv, V domains shown)
VH: QVQLLQSAAEVKKPGESLKISCKGSGYSFTSYWIGWVRQMPGKGLEWMGIIYPGDSDTRYSPSFQGQVTISADKSISTAYLQWSSLKASDTAVYYCARFCSPWGQGTLVTV
VL: LQSVLTQPPSVSEAPRQRVTISCSGSSSNIGNNAVNWYQQLPGKAPKLLIYYDDLLPSGVSDRFSGSKSGTSASLAISGLQSEDEADYYCAAWDDSLCVFGGGTKLTVLG
对TNF-α诱导的L929细胞毒性的抑制作用 (L929 cytotoxicity neutralisation, MTT) IC50: ~0.015 µM
